Test results from patent US20190282673A1, “STAPHTAME ACTIVITY ON BIOFILMS” (priority 2016, published 2019).

Assays:
S. haemolyticus = assay: P128 MIC in CAMHB and serum; type: cell-based
[1] = test system: multi-species biofilm (P. aeruginosa PAO1, S. aureus ATCC 700699, E. faecalis ATCC 29212); assay: Lubbock chronic wound pathogenic biofilm (LCWPB) mixed culture model; type: cell-based; conditions: for CFU/mL of P. aeruginosa / CFU/mL of E. faecalis / CFU/mL of S. aureus: 24 h
Procedure: LCWPB media (Bolton broth, Oxoid Ltd, supplemented with 50% Bovine Plasma and 5% hemolyzed horse blood) was used for multi-species biofilm formation according to the procedure described. Sun, et al. (2008) “In vitro multispecies Lubbock chronic wound biofilm model” Wound Repair Regen. 16:805-13. Briefly, P. aeruginosa PAO1, E. faecalis ATCC 29212 and S. aureus ATCC 700699 grown on TSB agar plates were inoculated into TSB broth and grown at 37° C. in a shaker for 16 h. The cultures were individually diluted to 1×10^6 CFU/mL, mixed in equal volumes, and 10 μL was added to 3 mL of LCWPB media containing a sterile pipette tip. For biofilm formation either two (P. aeruginosa PAO1, and S. aureus ATCC 700699) or all three bacterial species (P. aeruginosa PAO1, E. faecalis ATCC 29212 and S. aureus ATCC 700699) were inoculated into LCWPB media. In this model the pipette tip acts as a surface for biofilm formation. To test the ability of P128 to prevent biofilm formation, P128 at 10, 50 and 250 μg/mL was added to the tubes and the tubes were incubated at 37° C. in a shaker for 24 h with shaking at 150 rpm. Upon completion of incubation, the tips were removed from the tubes and placed on petri plates for observation. In the absence of P128, a confluent and thick mass of biofilm could be seen. The mass of the biofilm was greater in culture tubes with 3 species than in the ones with 2 species. For enumeration of bacteria in biofilms, the biofilm formed on the tips was washed twice in PBS, transferred into clean test tubes, and again washed twice with PBS. The washed biofilm mass was then transferred to a 50 mL conical polypropylene tube and the biofilm was macerated with sterile scissors. In situations when biofilm formation was not visible, the tips alone were processed as described above. The contents were vortexed thoroughly, diluted and plated on TSA plates. The plates were incubated for 24 h at 37° C. followed by incubation at ambient temperature for 24 h to enhance pigment production.

[2] = test system: S. haemolyticus stationary phase cells; assay: P128 activity on stationary phase cells (CFU); type: cell-based; conditions: 10 μg/mL P128, 2 h
Excerpt: (§1) Most in vitro studies examining the activity of antibiotics have been performed on rapidly dividing planktonic bacterial cultures supplemented with rich growth media. However, in infections, bacteria seldom encounter optimal conditions that allow logarithmic growth. It is likely that stationary-phase or non dividing bacteria are common in many persistent Staphylococcus infections such as endocarditis and osteomyelitis and in biofilm-associated infections (e.g., on catheters, grafts, and foreign bodies). Therefore, activity of P128 was determined on stationary phase cells of three S. aureus strains, three S. epidermidis, and two each of S. lugdunensis and S. haemolyticus strains. Briefly, the test cultures were grown overnight in LB (˜10^9 cells), centrifuged, pellet was washed and resuspended in saline. Optical density (OD600) was adjusted to 0.2 (˜10^8 CFU/mL). 100 μL of these cells were treated with 10 μg/mL P128 (in saline) and incubated at 37° C. for 2 h, 200 rpm, cell controls without proteins were maintained. Following incubation, the volume was made up to 1 mL with saline, serially log diluted in saline and plated on LB agar. Incubated at 37° C. for 18 h to enumerate residual CFU to determine cell killing.

[3] = test system: S. lugdunensis stationary phase cells; assay: P128 activity on stationary phase cells (CFU); type: cell-based; conditions: 10 μg/mL P128, 2 h
Excerpt: as §1

[4] = test system: S. aureus stationary phase cells; assay: P128 activity on stationary phase cells (CFU); type: cell-based, Staphylococcus aureus; conditions: for CFU/mL, P128 treated: 10 μg/mL P128, 2 h
Excerpt: as §1

[5] = two species (P. aeruginosa PAO1, S. aureus ATCC 700699), P128 10 μg/mL

B1: P128: anti-staphylococcal chimeric protein: phage tail associated muralytic enzyme (TAME) cell wall-degrading region plus staphylococcus-specific binding region; SEQ ID NO: 1 (protein)
chain: MSLDSLKKYNGKLPKHDPSFVQPGNRHYKYQCTWYAYNRRGQLGIPVPLWGDAADWIGGAKGAGYGVGRTPKQGACVIWQRGVQGGSPQYGHVAFVEKVLDGGKKIFISEHNYATPNGYGTRTIDMSSAIGKNAQFIYDKKLETPNTGWKTNKYGTLYKSESASFTPNTDIITRTTGPFRSMPQSGVLKAGQTIHYDEVMKQDGHVWVGYTGNSGQRIYLPVRTWNKSTNTLGVLWGTIK
modifications: P128 chimera
- Fold reduction in serum MIC (S. haemolyticus; S. haemolyticus B9478): 16 fold
- MIC of P128 in CAMHB (S. haemolyticus; S. haemolyticus B9478): 128 μg/ml and (4.64) μM
- MIC of P128 in Serum (S. haemolyticus; S. haemolyticus B9478): 8 μg/ml and (0.29) μM
- Fold reduction in serum MIC (S. haemolyticus; S. haemolyticus B9511): 32 fold
- MIC of P128 in CAMHB (S. haemolyticus; S. haemolyticus B9511): 8 μg/ml and (0.29) μM
- MIC of P128 in Serum (S. haemolyticus; S. haemolyticus B9511): 0.25 μg/ml and (0.008) μM
- 24 h P128 MIC for serum time-kill (S. haemolyticus; S. haemolyticus, fetal calf serum): 0.25 µg/mL
- Prevention of biofilm formation ([1]; P128 1×MIC (10 μg/mL)): prevented the formation of biofilms
- CFU/mL of P. aeruginosa ([1]; three species (P. aeruginosa PAO1, S. aureus ATCC 700699, E. faecalis ATCC29212), P128 10 μg/mL): 2.2 × 10^5 CFU/mL
- CFU/mL of E. faecalis ([1]; three species, P128 10 μg/mL): 9 × 10^5 CFU/mL
- CFU/mL of S. aureus ([1]; three species, P128 10 μg/mL): 2 × 10^4 CFU/mL
- CFU/mL of E. faecalis ([1]; three species, P128 50 μg/mL): 1.8 × 10^4 CFU/mL
- CFU/mL of P. aeruginosa ([1]; three species, P128 50 μg/mL): 7 × 10^4 CFU/mL
- CFU/mL of S. aureus ([1]; three species, P128 50 μg/mL): 2 × 10^3 CFU/mL
- CFU/mL of E. faecalis ([1]; three species, P128 250 μg/mL): 1.6 × 10^4 CFU/mL
- CFU/mL of P. aeruginosa ([1]; three species, P128 250 μg/mL): 1.7 × 10^5 CFU/mL
- CFU/mL of S. aureus ([1]; three species, P128 250 μg/mL): <10 CFU/mL
- CFU/mL of P. aeruginosa [1, 5]: 2 × 10^6 CFU/mL
- CFU/mL of S. aureus [1, 5]: 2.2 × 10^5 CFU/mL
- CFU/mL of P. aeruginosa ([1]; two species, P128 50 μg/mL): 1.5 × 10^5 CFU/mL
- CFU/mL of S. aureus ([1]; two species, P128 50 μg/mL): 1.8 × 10^5 CFU/mL
- CFU/mL of P. aeruginosa ([1]; two species, P128 250 μg/mL): 8 × 10^5 CFU/mL
- CFU/mL of S. aureus ([1]; two species, P128 250 μg/mL): 2 × 10^3 CFU/mL
- CFU/mL, P128 treated ([2]; S. haemolyticus B9478 stationary phase): 1.1 × 10^3 CFU/mL
- CFU/mL, P128 treated ([2]; S. haemolyticus B9479 stationary phase): 6 × 10^2 CFU/mL
- CFU/mL, P128 treated ([3]; S. lugdunensis B9474 stationary phase): 4.9 × 10^2 CFU/mL
- CFU/mL, P128 treated ([3]; S. lugdunensis B9475 stationary phase): 2.7 × 10^4 CFU/mL
- CFU/mL, P128 treated ([4]; S. aureus B9377 stationary phase): 3 × 10^2 CFU/mL
- CFU/mL, P128 treated ([4]; S. aureus BK18 stationary phase): 1 × 10^1 CFU/mL
- CFU/mL, P128 treated ([4]; S. aureus BK31 stationary phase): 3.5 × 10^1 CFU/mL
- Drop in CFU, stationary cells ([4]; S. aureus, S. epidermidis, S. lugdunensis and S. haemolyticus): Three to five log drop in CFU
